Data on one substance can be found in US7132258B1, “Nucleic acid encoding vitamin D receptor related polypeptide” (University of Massachusetts, priority 1998, dated 2006).

Assay [1] addresses T1, human progesterone receptor (hPR) (Homo sapiens, UniProt P06401).
T1 construct: expressed in transfected cells; host or cells: CV-1 monkey kidney cells
Nature of the assay: Coactivation of hPR on MMTV-LTR luciferase reporter in CV-1 cells. Format: cell-based. To be noted: coexpressed RAC3, 100 nM progesterone. The procedure:
In this experiment, transfected cells were treated with or without 100 nM of progesterone at presence or absence of coexpressed RAC3 or SRC-1 in CV-1 cells.
Thus, RAC3 is a bona fide transcriptional coactivator for mammalian steroid/nuclear hormone receptors.
For orientation: A reporter such as luciferase makes a cellular process visible.

Assay [2] deals with T2, Gal4 DBD fusion of the LBD of hRARα (Homo sapiens, UniProt P10276).
T2 construct: Gal4 DBD fusion of the LBD of hRARα (Gal-RAR); expressed in transfected cells; host or cells: A549 human lung carcinoma cells
As to the kind of experiment: Coactivation of Gal-RAR on Gal4-tk-Luc reporter in A549 cells. Format: cell-based. To be noted: overexpression of RAC3, 100 nM atRA, 24 hours. Here is the method:
Monkey kidney-derived CV-1 cells and human lung carcinoma A549 cells were grown in phenol-free DMEM medium supplemented with 10% charcoal-stripped fetal bovine serum (Gibco). One day before transfection, cells were seeded in 12-well plates at a density of 50,000 cells per well. A mixture of DNAs was prepared that contained 0.5 μg of expression vector, 0.5 μg of pCMX-βGal used as internal control for transfection efficiency, 1 μg of luciferase reporter, and 1.5 μg of carrier DNA (PGEM) in a final volume of 30 μl. The DNA solution was mixed dropwise with one volume of 0.5 M CaCl2 and two volumes of 2×BBS (50 mM N,N-bis(2-hydroxyethyl)-2-aminoethanesulfonic acid (BES; Calbiochem), 280 mM NaCl, 1.5 mM Na2HPO4, pH 6.95). DNA precipitates were allowed to form at room temperature for 10 minutes and applied evenly to the cell cultures. Cells were allowed to transfect for 12 hours, then the precipitates were removed by washing transfected cells twice with phosphate buffered saline (PBS). […]
Luciferase and β-galactosidase assays were used to analyze the cultures. […] The luciferase activities were determined with MLX microtiter plate luminometer (Dynex) using 100 μl of assay solution (0.1 M KPO4, 5 mM ATP, 10 mM MgCl2) and 100 μl of luciferin solution (0.01 M D-luciferin in 0.1 M KPO4, pH 7.8). […]

The target of the next assay is T3, RXR (full-length hRXRα) (Homo sapiens, UniProt P19793).
T3 construct: RXR (full-length hRXRα); expressed in transfected cells; host or cells: Saccharomyces cerevisiae Y190
T3 sequence (P19793 1-462): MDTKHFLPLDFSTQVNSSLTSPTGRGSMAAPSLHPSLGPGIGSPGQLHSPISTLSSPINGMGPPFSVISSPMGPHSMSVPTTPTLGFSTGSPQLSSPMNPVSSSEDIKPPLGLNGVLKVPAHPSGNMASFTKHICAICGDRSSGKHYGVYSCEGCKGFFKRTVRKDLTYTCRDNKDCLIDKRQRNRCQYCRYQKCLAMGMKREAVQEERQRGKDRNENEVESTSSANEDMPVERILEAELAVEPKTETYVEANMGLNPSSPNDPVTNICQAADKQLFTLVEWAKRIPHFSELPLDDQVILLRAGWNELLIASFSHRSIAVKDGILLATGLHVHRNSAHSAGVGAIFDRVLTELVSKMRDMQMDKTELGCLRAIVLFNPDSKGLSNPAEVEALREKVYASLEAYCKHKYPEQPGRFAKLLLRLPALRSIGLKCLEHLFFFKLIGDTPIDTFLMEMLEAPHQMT
T3 sequence (Q9Y6Q9 401-1204 E704Q partner limits assumed): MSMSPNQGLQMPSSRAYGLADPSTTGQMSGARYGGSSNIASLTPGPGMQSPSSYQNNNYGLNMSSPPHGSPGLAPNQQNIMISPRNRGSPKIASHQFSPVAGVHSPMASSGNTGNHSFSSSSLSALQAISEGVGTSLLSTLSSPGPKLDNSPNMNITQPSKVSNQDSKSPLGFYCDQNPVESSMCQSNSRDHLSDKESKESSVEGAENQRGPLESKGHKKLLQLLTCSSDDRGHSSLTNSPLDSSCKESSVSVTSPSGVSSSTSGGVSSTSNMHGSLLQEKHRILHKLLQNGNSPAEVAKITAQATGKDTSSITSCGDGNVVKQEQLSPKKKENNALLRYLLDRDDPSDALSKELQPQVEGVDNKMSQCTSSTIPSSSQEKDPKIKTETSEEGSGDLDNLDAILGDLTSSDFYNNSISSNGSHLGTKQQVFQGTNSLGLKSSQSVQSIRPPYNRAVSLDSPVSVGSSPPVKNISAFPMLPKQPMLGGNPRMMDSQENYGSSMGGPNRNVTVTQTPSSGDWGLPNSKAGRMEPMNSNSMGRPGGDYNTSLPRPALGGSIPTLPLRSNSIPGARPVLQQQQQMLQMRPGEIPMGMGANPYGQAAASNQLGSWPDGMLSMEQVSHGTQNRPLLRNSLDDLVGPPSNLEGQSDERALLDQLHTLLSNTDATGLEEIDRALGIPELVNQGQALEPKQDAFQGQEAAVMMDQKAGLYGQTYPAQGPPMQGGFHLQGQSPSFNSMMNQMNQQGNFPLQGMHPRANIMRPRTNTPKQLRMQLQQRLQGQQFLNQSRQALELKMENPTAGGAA
Nature of the assay: Yeast two-hybrid interaction with RXR. Format: binding. Particulars: β-galactosidase ONPG assay, 1 μM ligand or vehicle. The procedure: The protein—protein interactions between RAC3 and several steroid/nuclear receptors were analyzed by the yeast two-hybrid system. The original two-hybrid clone, RAC3.1 in pGAD10 vector, was retransformed together with yeast expression vectors for Gal4 DBD fusion of selected hormone receptor genes into Y190 cells. The receptors used include RAR (full-length hRARα), RXR (full-length hRXRα), VDR (LBD of human Vitamin D receptor), PPAR (LBD of mPPARα), TR (LBD) of hTRβ), COUP (LBD of COUP-TFI). Three independent colonies from each transformation were selected and analyzed for expression of […] activities by liquid ONPG assay (FIG. 6) after treatment with 1 μM of corresponding ligands (closed bars), or with equal concentration of vehicle alone (open bars). […] The ligands used in these experiments were atRA, VitD3 (1,25-dihydroxyvitamin D3), and Wy (Wy 14,642). […] In the absence of ligand, RAC3 can interact with RAR and PPAR.

T2 sequence (P10276 183-417 limits assumed): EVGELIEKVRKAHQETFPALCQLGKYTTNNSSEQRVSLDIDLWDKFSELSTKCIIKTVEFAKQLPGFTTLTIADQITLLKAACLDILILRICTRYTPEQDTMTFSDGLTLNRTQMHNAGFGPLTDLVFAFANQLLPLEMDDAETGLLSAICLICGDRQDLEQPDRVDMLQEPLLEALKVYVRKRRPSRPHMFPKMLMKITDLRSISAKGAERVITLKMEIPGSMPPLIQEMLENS
T2 sequence (Q9Y6Q9 with tags, fused parts or gaps isoform Q9Y6Q9-5 D131E/G132A/T187P/E704Q/DEL1268-1272 partner): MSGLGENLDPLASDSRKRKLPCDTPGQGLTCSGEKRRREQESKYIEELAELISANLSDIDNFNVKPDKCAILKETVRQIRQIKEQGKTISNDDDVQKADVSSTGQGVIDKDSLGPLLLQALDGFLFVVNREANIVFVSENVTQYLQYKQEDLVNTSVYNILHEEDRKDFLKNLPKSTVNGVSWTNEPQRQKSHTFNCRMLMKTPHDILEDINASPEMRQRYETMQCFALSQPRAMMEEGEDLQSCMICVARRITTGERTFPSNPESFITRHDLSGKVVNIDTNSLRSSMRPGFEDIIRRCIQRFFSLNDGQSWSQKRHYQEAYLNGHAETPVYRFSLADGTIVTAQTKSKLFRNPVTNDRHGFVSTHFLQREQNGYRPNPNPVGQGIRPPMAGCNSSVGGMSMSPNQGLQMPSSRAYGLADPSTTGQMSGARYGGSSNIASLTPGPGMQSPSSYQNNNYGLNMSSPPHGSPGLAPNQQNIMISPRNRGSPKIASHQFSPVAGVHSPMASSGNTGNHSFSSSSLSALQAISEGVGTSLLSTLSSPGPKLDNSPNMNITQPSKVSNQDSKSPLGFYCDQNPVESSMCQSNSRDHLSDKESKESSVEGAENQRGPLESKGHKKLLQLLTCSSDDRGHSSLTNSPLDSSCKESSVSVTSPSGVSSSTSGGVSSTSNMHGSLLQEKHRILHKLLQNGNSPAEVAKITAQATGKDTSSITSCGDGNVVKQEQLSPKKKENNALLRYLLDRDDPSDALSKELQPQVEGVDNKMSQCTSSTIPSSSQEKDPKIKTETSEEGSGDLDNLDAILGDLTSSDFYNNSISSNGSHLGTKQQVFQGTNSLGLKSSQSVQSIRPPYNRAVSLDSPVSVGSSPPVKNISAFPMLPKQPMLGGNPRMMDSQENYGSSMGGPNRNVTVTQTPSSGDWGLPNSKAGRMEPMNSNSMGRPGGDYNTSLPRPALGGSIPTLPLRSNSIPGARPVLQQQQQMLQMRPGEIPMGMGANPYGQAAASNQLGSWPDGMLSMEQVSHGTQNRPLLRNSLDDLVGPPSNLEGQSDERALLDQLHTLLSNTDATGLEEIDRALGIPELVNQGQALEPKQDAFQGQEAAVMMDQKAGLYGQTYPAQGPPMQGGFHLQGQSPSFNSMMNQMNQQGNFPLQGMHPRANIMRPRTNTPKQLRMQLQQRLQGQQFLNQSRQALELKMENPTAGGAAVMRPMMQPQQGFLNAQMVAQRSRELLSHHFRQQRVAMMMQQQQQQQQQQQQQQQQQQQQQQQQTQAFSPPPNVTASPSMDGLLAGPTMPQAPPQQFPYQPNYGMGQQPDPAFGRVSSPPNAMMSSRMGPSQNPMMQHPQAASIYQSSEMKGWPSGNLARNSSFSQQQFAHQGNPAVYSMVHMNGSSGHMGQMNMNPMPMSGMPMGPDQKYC
T1 sequence (P06401 whole entry): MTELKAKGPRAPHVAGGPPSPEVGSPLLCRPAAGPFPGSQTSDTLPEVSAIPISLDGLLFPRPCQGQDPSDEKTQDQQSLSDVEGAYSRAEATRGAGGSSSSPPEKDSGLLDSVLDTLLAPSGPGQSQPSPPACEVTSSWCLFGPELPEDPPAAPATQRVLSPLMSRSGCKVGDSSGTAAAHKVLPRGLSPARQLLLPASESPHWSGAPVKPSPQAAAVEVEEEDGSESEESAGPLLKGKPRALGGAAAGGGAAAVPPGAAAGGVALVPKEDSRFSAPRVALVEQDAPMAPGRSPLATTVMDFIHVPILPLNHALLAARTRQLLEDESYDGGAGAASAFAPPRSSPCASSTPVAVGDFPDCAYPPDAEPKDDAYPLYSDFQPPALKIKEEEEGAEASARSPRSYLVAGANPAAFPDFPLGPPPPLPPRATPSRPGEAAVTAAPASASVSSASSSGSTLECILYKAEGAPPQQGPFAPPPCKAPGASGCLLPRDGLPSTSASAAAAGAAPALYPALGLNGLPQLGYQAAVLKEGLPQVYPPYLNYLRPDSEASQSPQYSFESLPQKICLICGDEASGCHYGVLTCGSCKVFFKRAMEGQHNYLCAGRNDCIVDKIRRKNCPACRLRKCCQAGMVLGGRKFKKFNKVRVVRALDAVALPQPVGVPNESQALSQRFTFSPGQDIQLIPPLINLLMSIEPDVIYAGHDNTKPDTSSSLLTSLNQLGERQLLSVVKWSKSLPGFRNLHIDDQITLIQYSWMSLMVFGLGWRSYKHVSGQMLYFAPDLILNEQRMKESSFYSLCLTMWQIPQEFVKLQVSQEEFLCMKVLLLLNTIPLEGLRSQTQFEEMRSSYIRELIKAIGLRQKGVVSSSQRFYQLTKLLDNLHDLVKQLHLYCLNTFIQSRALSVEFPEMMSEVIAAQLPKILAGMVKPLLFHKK
T1 sequence (Q9Y6Q9 with tags, fused parts or gaps isoform Q9Y6Q9-5 D131E/G132A/T187P/E704Q/DEL1268-1272 partner): as the sequence (Q9Y6Q9 with tags, fused parts or gaps isoform Q9Y6Q9-5 D131E/G132A/T187P/E704Q/DEL1268-1272 partner) above

Turning to “RAC3: transcriptional coactivator of steroid/nuclear receptors, protein of about 1417 amino acids (SEQ ID NO:2); RAC3.1 is the two-hybrid clone, amino acids 401–1204”, the “transcriptional activation by PR on the MMTV-LTR promoter” value in assay [1] is recorded as “enhanced transcriptional activation”. In assay [2], the “enhancement of ligand-dependent transcriptional activation by Gal4 DBD fusion of RAR” value was “about two-fold”. The “interaction with RXR” value with RXR (full-length hRXRα) is “ligand-dependent manner”.
